In article PMC7935748 (Molecular cell, 2021):
Positions count from the first letter of the chain named. In names and notes the source's numbering stands.

B1: dT60 (ssDNA)
DNA: TTTTTTTTTTTTTTTTTTTTTTTTTTTTTTTTTTTTTTTTTTTTTTTTTTTTTTTTTTTT
B2: Human RAD51 (natural protein, UniProt Q06609 1-339, looked up)
chain: MAMQMQLEANADTSVEEESFGPQPISRLEQCGINANDVKKLEEAGFHTVEAVAYAPKKELINIKGISEAKADKILAEAAKLVPMGFTTATEFHQRRSEIIQITTGSKELDKLLQGGIETGSITEMFGEFRTGKTQICHTLAVTCQLPIDRGGGEGKAMYIDTEGTFRPERLLAVAERYGLSGSDVLDNVAYARAFNTDHQTQLLYQASAMMVESRYALLIVDSATALYRTDYSGRGELSARQMHLARFLRMLLRLADEFGVAVVITNQVVAQVDGAAMFAADPKKPIGGNIIAHASTTRLYLRKGRGETRICKIYDSPCLPEAEAMFAINADGVGDAKD
B3: RAD51 K133R (natural protein, human, UniProt Q06609 1-339, looked up)
chain: B2 chain with K133R

What was measured:
MBP-RADX QVPK = MBP-RADX QVPK (Homo sapiens, UniProt Q6NSI4 1-855, Q451A;V452A;P453A;K454A); test: EMSA
MBP-RADX = MBP-RADX (Homo sapiens, UniProt Q6NSI4 1-855); test: EMSA
[1] = target: FLAG-GFP-RADX alanine mutant of residues 365-368 (human, UniProt Q6NSI4 1-855, 4-residue alanine mutation of residues 365-368); test: pull-down
FLAG-GFP-RADX = FLAG-GFP-RADX (human, UniProt Q6NSI4 1-855); test: pull-down
FLAG-GFP-RADX R389E = FLAG-GFP-RADX R389E (human, UniProt Q6NSI4 1-855, R389E); test: pull-down

Row | Binder | binding result (MBP-RADX QVPK) | binding result (MBP-RADX) | binding result [1] | binding result (FLAG-GFP-RADX) | binding result (FLAG-GFP-RADX R389E)
1 | B1 | binds | binds |  |  | 
2 | B2 |  |  | binds | binds | binds
3 | B3 |  |  |  | binds | 
